Assay results: the supplement of paper PMC9112550, “Optimization of the antimicrobial peptide Bac7 by deep mutational scanning” (BMC Biology, 2022)

Tested on: Escherichia coli TOP10
Assay: shrunken log2 fold change of peptide-encoding DNA abundance (4.5 h post-induction vs induction); higher = less antimicrobial activity (less host growth inhibition)
Details: time post-induction: 4.5 h; library: site-saturation at positions 5, 18, 19, 20
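Further: peptides expressed intracellularly from a pBAD plasmid library in pooled LB shake-flask culture, induced with 0.3% L-arabinose, DNA abundance read by NGS, three biological replicates, DESeq2 with apeglm shrinkage.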

Sequence	shrunken log2 fold change
RRIRQRPPRLPRPRPRPVKQPRP	-0.0153
RRIRMRPPRLPRPRPRPIHLPRP	-0.209
RRIRHRPPRLPRPRPRPFQGPRP	-0.0278
RRIRIRPPRLPRPRPRPIYMPRP	0.00602
RRIRERPPRLPRPRPRPRCNPRP	-0.122
RRIRYRPPRLPRPRPRPMLCPRP	-0.0838
RRIRCRPPRLPRPRPRPTTTPRP	-0.0127
RRIRKRPPRLPRPRPRPLVAPRP	0.805
RRIRHRPPRLPRPRPRPVADPRP	-0.209
RRIRYRPPRLPRPRPRPRCVPRP	-0.276
RRIRFRPPRLPRPRPRPMTMPRP	-0.132
RRIRIRPPRLPRPRPRPSPWPRP	-0.34
RRIRCRPPRLPRPRPRPLVMPRP	-0.0664
RRIRWRPPRLPRPRPRPHSRPRP	0.194
RRIRARPPRLPRPRPRPMLIPRP	0.0528
RRIRSRPPRLPRPRPRPLDTPRP	-0.157
RRIRYRPPRLPRPRPRPEGAPRP	0.295
RRIRDRPPRLPRPRPRPDCQPRP	-0.00973
RRIRERPPRLPRPRPRPQTGPRP	-0.0945
RRIRARPPRLPRPRPRPFMHPRP	0.229
RRIRQRPPRLPRPRPRPKSLPRP	-0.0933
RRIRARPPRLPRPRPRPCKMPRP	0.145

Sequence	shrunken log2 fold change
RRIRYRPPRLPRPRPRPAKAPRP	0.0797
RRIRVRPPRLPRPRPRPCQYPRP	-0.53
RRIRWRPPRLPRPRPRPMPRPRP	0.623
RRIRRRPPRLPRPRPRPVSVPRP	0.308
RRIRARPPRLPRPRPRPQIHPRP	-0.0277
RRIRVRPPRLPRPRPRPRGDPRP	0.754
RRIRHRPPRLPRPRPRPYSMPRP	-0.878
RRIRNRPPRLPRPRPRPPILPRP	0.144
RRIRCRPPRLPRPRPRPIFLPRP	-0.257
RRIRMRPPRLPRPRPRPIMNPRP	0.284
RRIRLRPPRLPRPRPRPDVLPRP	-0.00959
RRIRIRPPRLPRPRPRPYRDPRP	-0.0075
RRIRHRPPRLPRPRPRPWTMPRP	-0.344
RRIRSRPPRLPRPRPRPFLNPRP	-1.03
RRIRPRPPRLPRPRPRPQVGPRP	0.0207
RRIRIRPPRLPRPRPRPQSTPRP	-0.427
RRIRYRPPRLPRPRPRPQFSPRP	0.0125
RRIRGRPPRLPRPRPRPDTPPRP	0.799
RRIRARPPRLPRPRPRPRAKPRP	0.868
RRIRNRPPRLPRPRPRPAPQPRP	0.182
RRIRQRPPRLPRPRPRPPHDPRP	1.12
RRIRFRPPRLPRPRPRPGMYPRP	-0.076

Sequence	shrunken log2 fold change
RRIRKRPPRLPRPRPRPHNDPRP	0.00261
RRIRGRPPRLPRPRPRPRLIPRP	0.166
RRIRTRPPRLPRPRPRPCKHPRP	-0.0101
RRIRKRPPRLPRPRPRPLVRPRP	0.114
RRIRNRPPRLPRPRPRPGGGPRP	0.723
RRIRCRPPRLPRPRPRPFEGPRP	0.0192
RRIRARPPRLPRPRPRPEHWPRP	0.261
RRIRNRPPRLPRPRPRPPQLPRP	0.131
RRIRWRPPRLPRPRPRPQEVPRP	-0.0144
RRIRMRPPRLPRPRPRPFHMPRP	0.105
RRIRGRPPRLPRPRPRPNWTPRP	0.0497
RRIRGRPPRLPRPRPRPYWLPRP	-0.0478
RRIRHRPPRLPRPRPRPTLCPRP	-0.134
RRIRERPPRLPRPRPRPNWLPRP	-0.00723
RRIRWRPPRLPRPRPRPPILPRP	0.27
RRIRERPPRLPRPRPRPCVMPRP	-0.41
RRIRPRPPRLPRPRPRPNWWPRP	0.717
RRIRLRPPRLPRPRPRPVRQPRP	0.569
RRIRARPPRLPRPRPRPMVCPRP	0.396
RRIRSRPPRLPRPRPRPFRRPRP	-0.261
RRIRPRPPRLPRPRPRPAIGPRP	-0.0136
RRIRTRPPRLPRPRPRPHHYPRP	-0.46

Sequence	shrunken log2 fold change
RRIRARPPRLPRPRPRPTMHPRP	0.354
RRIRQRPPRLPRPRPRPQDQPRP	-0.276
RRIRMRPPRLPRPRPRPIPKPRP	0.0362
RRIRRRPPRLPRPRPRPLNTPRP	-0.244
RRIRHRPPRLPRPRPRPHIFPRP	-0.308
RRIRQRPPRLPRPRPRPGNHPRP	-0.0216
RRIRARPPRLPRPRPRPSYWPRP	-0.184
RRIRVRPPRLPRPRPRPTGHPRP	0.0149
RRIRHRPPRLPRPRPRPKAMPRP	-0.0705
RRIRRRPPRLPRPRPRPCQRPRP	0.0494
RRIRIRPPRLPRPRPRPEGAPRP	0.27
RRIRIRPPRLPRPRPRPYTDPRP	-0.0335
RRIRDRPPRLPRPRPRPPFGPRP	0.225
RRIRCRPPRLPRPRPRPSKFPRP	-0.17
RRIRSRPPRLPRPRPRPRPNPRP	0.345
RRIRMRPPRLPRPRPRPHGGPRP	-0.0492
RRIRHRPPRLPRPRPRPLHKPRP	-0.294
RRIRMRPPRLPRPRPRPIWGPRP	0.0405
RRIRKRPPRLPRPRPRPMDWPRP	0.256
RRIRARPPRLPRPRPRPRFHPRP	-0.0673
RRIRFRPPRLPRPRPRPCMEPRP	-0.105
RRIRWRPPRLPRPRPRPIPAPRP	0.523

Sequence	shrunken log2 fold change
RRIRVRPPRLPRPRPRPSKWPRP	-0.283
RRIRIRPPRLPRPRPRPIIDPRP	-0.372
RRIRSRPPRLPRPRPRPQNLPRP	-0.394
RRIRVRPPRLPRPRPRPTCEPRP	0.243
RRIRDRPPRLPRPRPRPPMQPRP	0.172
RRIRGRPPRLPRPRPRPPYDPRP	0.0844
RRIRPRPPRLPRPRPRPDHIPRP	-0.0312
RRIRERPPRLPRPRPRPTEEPRP	0.00212
RRIRKRPPRLPRPRPRPFNDPRP	-0.135
RRIRSRPPRLPRPRPRPQVKPRP	-0.146
RRIRERPPRLPRPRPRPFRIPRP	-0.367
RRIRIRPPRLPRPRPRPQNNPRP	-0.957
RRIRWRPPRLPRPRPRPGVFPRP	0.224
RRIRLRPPRLPRPRPRPDQCPRP	-0.0609
RRIRIRPPRLPRPRPRPTGVPRP	0.039
RRIRRRPPRLPRPRPRPNIRPRP	-0.144
RRIRERPPRLPRPRPRPEQYPRP	-0.14
RRIRWRPPRLPRPRPRPGFTPRP	0.132
RRIRHRPPRLPRPRPRPCLIPRP	-0.11
RRIRDRPPRLPRPRPRPKFDPRP	-0.0895
RRIRDRPPRLPRPRPRPYAEPRP	0.247
